Several values for one entry are separate records, joined by “and”; a condition that tells them apart may be missing. Identical values can stand only once. Entries after “also recorded” stand apart in the source; their conditions may differ.
Key:
[1] = system: human melanoma A-375 xenografts; experiment: Human melanoma xenograft model; assay type: in vivo, athymic nude Balb/c mice; conditions: A-375 xenograft; for Tumor weight (X ± SD): n = 10
[2] = system: human colon cancer LS 180 xenografts; experiment: Human colon cancer xenograft model; assay type: in vivo, athymic nude Balb/c mice; conditions: LS 180 xenograft; for Tumor weight (X ± SD): n = 10
[3] = General condition of the mice during treatment; assay type: in vivo; conditions: mice with human cancer xenografts, during the treatment period
[4] = system: human leukemia HL 60(s) xenografts; experiment: Human leukemia xenograft model; assay type: in vivo, athymic nude Balb/c mice; conditions: HL 60(s) xenograft; for Tumor weight (X ± SD): n = 10
[5] = system: A549 lung carcinoma cell line; experiment: Anti-proliferative assay, A549; assay type: cell-based, human
[6] = system: DLD-1 colorectal adenocarcinoma cell line; experiment: Anti-proliferative assay, DLD-1; assay type: cell-based, human
[7] = system: PC-3 prostate carcinoma cell line; experiment: Anti-proliferative assay, PC-3; assay type: cell-based, human
[8] = system: IGR-37 melanoma cell line; experiment: Anti-proliferative assay, IGR-37; assay type: cell-based, human
[9] = system: C-33A cervix carcinoma cell line; experiment: Anti-proliferative assay, C-33A; assay type: cell-based, human
[10] = system: HL-60(S) lymphocytic cell line; experiment: Anti-proliferative assay, HL-60(S); assay type: cell-based, human
[11] = system: IPC-298 melanoma cell line; experiment: Anti-proliferative assay, IPC-298; assay type: cell-based, human
[12] = system: MKN 1 gastric adenocarcinoma cell line; experiment: Anti-proliferative assay, MKN 1; assay type: cell-based, human
[13] = system: KYSE 30 esophagus carcinoma cell line; experiment: Anti-proliferative assay, KYSE 30; assay type: cell-based, human
[14] = system: LS174T colorectal adenocarcinoma cell line; experiment: Anti-proliferative assay, LS174T; assay type: cell-based, human
[15] = system: DU 145 prostate carcinoma cell line; experiment: Anti-proliferative assay, DU 145; assay type: cell-based, human
[16] = system: L-428 Hodgkin's lymphoma cell line; experiment: Anti-proliferative assay, L-428; assay type: cell-based, human
[17] = system: human liver cancer Hep G2 xenografts; experiment: Human liver cancer xenograft model; assay type: in vivo, athymic nude Balb/c mice; conditions: 30 days; for Tumor weight (mean ± SD): n = 10
[18] = system: HeLa cervix adenocarcinoma cell line; experiment: Anti-proliferative assay, HeLa; assay type: cell-based, human
IGR-1 melanoma cell line = experiment: Anti-proliferative assay, IGR-1; assay type: cell-based, human
A-375 melanoma cell line = experiment: Anti-proliferative assay, A-375; assay type: cell-based, human
[19] = system: LS 180 colorectal adenocarcinoma cell line; experiment: Anti-proliferative assay, LS 180; assay type: cell-based, human
[20] = system: PLC/PRF/5 hepatoma cell line; experiment: Anti-proliferative assay, PLC/PRF/5; assay type: cell-based, human
HuH-7 hepatoma cell line = experiment: Anti-proliferative assay, HuH-7; assay type: cell-based, human
[21] = system: Hep G2 hepatocellular carcinoma cell line; experiment: Anti-proliferative assay, Hep G2; assay type: cell-based, human; conditions: HepG2
[22] = system: human prostate cancer PC-3 xenografts; experiment: Human prostate cancer xenograft model; assay type: in vivo, athymic nude Balb/c mice; conditions: PC-3 xenograft; for Inhibition rate / Tumor weight (mean ± SD): 30 days; for Tumor weight (mean ± SD): n = 10
Description: Colon cancer cell line (LS 180), melanoma cell line (A-375) and liver cancer cell line (Hep G2) were obtained from the American Type Culture Collection (ATCC, Rockville, Md.). Prostate cancer cell line (PC-3) was obtained from German National Resource Centre for Biological Material (DSMZ, Deutsche […] von Mikroorganismen and Zellkulturen, Germany). Lymphocytic cell line (HL 60(s) was purchased from Japanese Collection of Research Bioresources Cell Bank (JCRB, Japan). All cells were cultured according to their instructions (see Table 1). Briefly, LS 180 and Hep G2 were cultured in MEM medium. A-375 was cultured in DMEM. Both media were supplemented with 10% fetal bovine serum (FBS), 2 mM […] U/ml of penicillin, […] of streptomycin, 0.1 mM non-essential amino acids, and 1.0 mM sodium pyruvate. PC-3 and HL 60 (S) cells were cultured in RPMI 1640, supplemented with 10% FBS, 100 U/ml of penicillin, and […] of streptomycin. All cells were maintained in 5% CO2 atmosphere at 37° C. […] For the treatment of 5-FU, 30 mg/kg of 5-FU was i.v. administrated once every two days for a total of 5 times. The groups and treatment doses are summarized below: Once treatment commenced, tumors were measured with a caliper once a week. […] Mice were sacrificed at the day of treatment discontinuation (day 30 after commencement of the treatment). Solid tumors were isolated, photographed, and measured. […] C is the average tumor weight in control group after treatment.

[23] = system: SW 1116 colorectal adenocarcinoma cell line; experiment: Anti-proliferative assay, SW 1116; assay type: cell-based, human
[24] = system: Hep3B hepatocellular carcinoma cell line; experiment: Anti-proliferative assay, Hep3B; assay type: cell-based, human
[25] = system: Vesicular Stomatitis Virus (VSV) on WISH cells; assay type: cell-based; conditions: against VSV on WISH; units with reference to WHO international standards 94/786 and 95/650
[26] = system: HCT-8 colorectal adenocarcinoma cell line; experiment: Anti-proliferative assay, HCT-8; assay type: cell-based, human
[27] = 30 mg/kg (30,000 μg/kg) i.v. once every 2 days for 5 times

In the case of `O=c1[nH]cc(F)c(=O)[nH]1` [5-FU, 5-Fluorouracil, reference compound], the Inhibition rate [1, 27] is reported as 67.2%, the “Tumor weight (X ± SD)” value [1, 27] is reported as 1.004 ± 0.105 g and the Inhibition rate [2, 27] is reported as 81.8%. The “Tumor weight (X ± SD)” value [2, 27] was 0.758 ± 0.227 g, the “general condition of treated mice (eating, behavior, weight loss)” value [3] was “significant weight loss and activity reduction; also recorded: showed typical changes of eating and behavior, and weight loss” and the Inhibition rate [4, 27] was 76.0%. The “Tumor weight (X ± SD)” value [4, 27] was 0.893 ± 0.289 g.

B1: Novaferon: novel recombinant non-naturally occurring human interferon-like protein, 166 amino acids (SEQ ID No: 2), from Type I interferon shuffling library, expressed in E. coli (protein)
chain: CNLSQTHSLGSKRTLMLLAQMGKISLFSCLKDRHDFEFPQEEFDGNQFQKAQAISVLHELIQQTFNLFSTKESSAAWDEGLLDKFRTELYRQLNDLEACMMQEVGVEETPLMNADSILAVKKYFQRITLYLMEKKYSPCAWEVVRVEIMRSLSFSTNLQKRLRGKD
In the case of B1, the “Fold (Novaferon/HuIFN-α2b), increased tumor cell inhibition” value [5] is reported as 19 fold, the “Fold (Novaferon/HuIFN-α2b), increased tumor cell inhibition” value [6] is reported as 282 fold and the “Fold (Novaferon/HuIFN-α2b), increased tumor cell inhibition” value [7] is reported as 128 fold. For the same molecule, the “Fold (Novaferon/HuIFN-α2b), increased tumor cell inhibition” value [8] was 109 fold, the “Fold (Novaferon/HuIFN-α2b), increased tumor cell inhibition” value [9] was 143 fold and the “Fold (Novaferon/HuIFN-α2b), increased tumor cell inhibition” value [10] was 306 fold. The “Fold (Novaferon/HuIFN-α2b), increased tumor cell inhibition” value [11] was 70 fold, the “Fold (Novaferon/HuIFN-α2b), increased tumor cell inhibition” value [12] was 207 fold and the “Fold (Novaferon/HuIFN-α2b), increased tumor cell inhibition” value [13] was 683 fold. For the same molecule, the Inhibition rate ([1]; 1.25 μg/kg daily s.c.) was 40.1%, the “Tumor weight (X ± SD)” value ([1]; 1.25 μg/kg daily s.c., 30 days (28 days in the source)) was 1.830 ± 0.289 g and the Inhibition rate ([1]; 12.5 μg/kg daily s.c.) was 75.0%. For the same molecule, the “Tumor weight (X ± SD)” value ([1]; 12.5 μg/kg daily s.c., 30 days (28 days in the source)) was 0.763±0.187 g and 0.763 ± 0.187***&& $$$ g, the Inhibition rate ([1]; 125 μg/kg daily s.c.) was 82.8% and the “Tumor weight (X ± SD)” value ([1]; 125 μg/kg daily s.c., 30 days (28 days in the source)) was 0.527±0.149 g and 0.527 ± 0.149***&&&@@@ g. The “Fold (Novaferon/HuIFN-α2b), increased tumor cell inhibition” value [14] was 74 fold, the “Fold (Novaferon/HuIFN-α2b), increased tumor cell inhibition” value [15] was 36 fold and the “Fold (Novaferon/HuIFN-α2b), increased tumor cell inhibition” value [16] was 1134 fold. For the same molecule, the Inhibition rate ([17]; 1.25 μg/kg daily s.c.) was 63.4%, the average tumor volume ([17]; 1.25 μg/kg daily s.c.) was 783.2±270.0 mm^3 and the “Tumor weight (mean ± SD)” value ([17]; 1.25 μg/kg daily s.c.) was 0.797 ± 0.397 g. The Inhibition rate ([17]; 12.5 μg/kg daily s.c.) was 85.3%, the average tumor volume ([17]; 12.5 μg/kg daily s.c.) was 439.3±414.3 mm^3 and the “Tumor weight (mean ± SD)” value ([17]; 12.5 μg/kg daily s.c.) was 0.321 ± 0.300 g. For the same molecule, the Inhibition rate ([17]; 125 μg/kg daily s.c.) was 96.6%, the average tumor volume ([17]; 125 μg/kg daily s.c.) was 104.6±56.5 mm^3 and the “Tumor weight (mean ± SD)” value ([17]; 125 μg/kg daily s.c.) was 0.074±0.083 g and 0.074 ± 0.083***@ g. For the same molecule, the “Fold (Novaferon/HuIFN-α2b), increased tumor cell inhibition” value [18] was 141 fold, the “Fold (Novaferon/HuIFN-α2b), increased tumor cell inhibition” value (IGR-1 melanoma cell line) was 876 fold and the “Fold (Novaferon/HuIFN-α2b), increased tumor cell inhibition” value (A-375 melanoma cell line) was 733 fold. For the same molecule, the Inhibition rate ([2]; 1.25 μg/kg daily s.c., 28 days) was 75.0%, the “Tumor weight (X ± SD)” value ([2]; 1.25 μg/kg daily s.c., 28 days) was 1.043 ± 0.433 g and the Inhibition rate ([2]; 12.5 μg/kg daily s.c., 28 days) was 80.5%. The “Tumor weight (X ± SD)” value ([2]; 12.5 μg/kg daily s.c., 28 days) was 0.815 ± 0.221 g, the Inhibition rate ([2]; 125 μg/kg daily s.c., 28 days) was 92.5% and the “Tumor weight (X ± SD)” value ([2]; 125 μg/kg daily s.c., 28 days) was 0.314 ± 0.086 &&&@@@ g. The “Fold (Novaferon/HuIFN-α2b), increased tumor cell inhibition” value [19] was 350 fold, the “Fold (Novaferon/HuIFN-α2b), increased tumor cell inhibition” value [20] was 16 fold and the “Fold (Novaferon/HuIFN-α2b), increased tumor cell inhibition” value (HuH-7 hepatoma cell line) was 58 fold. For the same molecule, the “general condition of treated mice (eating, behavior, weight loss)” value [3] was “did not induce weight loss, activity changes and other negative side-effects; also recorded: normal eating and activity behavior and no weight loss; also recorded: generally ate and behaved normally, and had no weight loss”, the Inhibition rate ([4]; 1.25 μg/kg daily s.c., 21 days) was 43.8% and the “Tumor weight (X ± SD)” value ([4]; 1.25 μg/kg daily s.c., 21 days) was 2.091 ± 0.653 g. The Inhibition rate ([4]; 12.5 μg/kg daily s.c., 21 days) was 55.2%, the “Tumor weight (X ± SD)” value ([4]; 12.5 μg/kg daily s.c., 21 days) was 1.668 ± 0.665 g and the Inhibition rate ([4]; 125 μg/kg daily s.c., 21 days) was 80.4%. For the same molecule, the “Tumor weight (X ± SD)” value ([4]; 125 μg/kg daily s.c., 21 days) was 0.729 ± 0.332***@ g, the “Fold (Novaferon/HuIFN-α2b), increased tumor cell inhibition” value [21] was 43 fold and the Inhibition rate ([22]; 1.25 μg/kg daily s.c.) was 35.0%. For the same molecule, the “Tumor weight (mean ± SD)” value ([22]; 1.25 μg/kg daily s.c.) was 1.266 ± 0.457 g, the Inhibition rate ([22]; 12.5 μg/kg daily s.c.) was 61.0% and the “Tumor weight (mean ± SD)” value ([22]; 12.5 μg/kg daily s.c.) was 0.759 ± 0.574 g. The Inhibition rate ([22]; 125 μg/kg daily s.c.) was 95.3% and 95.1%, the “Tumor weight (mean ± SD)” value ([22]; 125 μg/kg daily s.c.) was 0.09±0.081 g and 0.091±0.081 g and 0.091 ± 0.081***@@@ g and the “average volume of tumor mass” value ([22]; 125 μg/kg daily s.c., day 28) was 107.9±68.7 mm^3. The “average volume of tumor mass” value ([22]; 125 μg/kg daily s.c., day 30) was 122.1±100.7 mm^3, the “Fold (Novaferon/HuIFN-α2b), increased tumor cell inhibition” value [23] was 222 fold and the “Fold (Novaferon/HuIFN-α2b), increased tumor cell inhibition” value [24] was 58 fold. The anti-viral activity [25] was 2.5×10^9 IU/mg and the “Fold (Novaferon/HuIFN-α2b), increased tumor cell inhibition” value [26] was 212 fold.

Source: patent US9982028B2, “Recombinant human interferon-like proteins” (Novagen Holding Corporation, priority 2007, dated 2018)
